Assay results from patent publication US20170355766A1 (Xencor, published 2017).

T1: FcγRIIaR (human, UniProt P12318)
T1 construct: recombinant receptor protein with 6xHis and GST tags; also called R131 FcγRIIa
T1 sequence (receptor, looked up): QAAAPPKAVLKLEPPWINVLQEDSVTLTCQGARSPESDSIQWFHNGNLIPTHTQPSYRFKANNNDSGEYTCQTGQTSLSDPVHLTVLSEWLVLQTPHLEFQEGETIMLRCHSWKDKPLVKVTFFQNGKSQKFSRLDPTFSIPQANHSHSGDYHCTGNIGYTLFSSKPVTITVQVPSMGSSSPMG

T2: human FcγRIIb receptor protein (R&D Systems) (human, UniProt P31994 46-217)
T2 construct: Analyte injected over antibodies captured on a protein A/G chip (Biacore); also called CD32b
T2 sequence (looked up): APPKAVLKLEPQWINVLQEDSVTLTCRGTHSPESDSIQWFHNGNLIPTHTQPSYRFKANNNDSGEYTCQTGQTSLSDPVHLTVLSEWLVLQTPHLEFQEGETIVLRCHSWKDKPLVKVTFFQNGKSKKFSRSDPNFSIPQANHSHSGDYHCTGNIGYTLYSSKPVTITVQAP


Key:
FcγRIIaR = target: T1, FcγRIIaR; assay: SPR (Biacore)
[1] = target: T2, human FcγRIIb receptor protein (R&D …); assay: SPR (Biacore)

Binder	Fold FcγRIIaR (FcγRIIaR)	Fold FcγRIIb [1]
L234P (antibody, human IgG1, kappa, HuAM4G7 IgG1 Fc variant) heavy: not shown light: DIVMTQSPATLSLSPGERATLSCRSSKSLQNVNGNTYLYWFQQKPGQSPQLLIYRMSNLNSGVPDRFSGSGSGTEFTLTISSLEPEDFAVYYCMQHLEYPITFGAGTKLEIKRTVAAPSVFIFPPSDEQLKSGTASVVCLLNNFYPREAKVQWKVDNALQSGNSQESVTEQDSKDSTYSLSSTLTLSKADYEKHKVYACEVTHQGLSSPVTKSFNRGEC	0.0141 fold	0.0644 fold
L234V (antibody, human IgG1, kappa, HuAM4G7 IgG1 Fc variant) heavy: not shown light: DIVMTQSPATLSLSPGERATLSCRSSKSLQNVNGNTYLYWFQQKPGQSPQLLIYRMSNLNSGVPDRFSGSGSGTEFTLTISSLEPEDFAVYYCMQHLEYPITFGAGTKLEIKRTVAAPSVFIFPPSDEQLKSGTASVVCLLNNFYPREAKVQWKVDNALQSGNSQESVTEQDSKDSTYSLSSTLTLSKADYEKHKVYACEVTHQGLSSPVTKSFNRGEC	0.134 fold	0.456 fold
L234W/G236D/S239E/S267E (antibody, human IgG1, kappa, HuAM4G7 IgG1 Fc variant) heavy: EVQLVESGGGLVKPGGSLKLSCAASGYTFTSYVMHWVRQAPGKGLEWIGYINPYNDGTKYNEKFQGRVTISSDKSISTAYMELSSLRSEDTAMYYCARGTYYYGTRVFDYWGQGTLVTVSSASTKGPSVFPLAPSSKSTSGGTAALGCLVKDYFPEPVTVSWNSGALTSGVHTFPAVLQSSGLYSLSSVVTVPSSSLGTQTYICNVNHKPSNTKVDKKVEPKSCDKTHTCPPCPAPEWLDGPEVFLFPPKPKDTLMISRTPEVTCVVVDVEHEDPEVKFNWYVDGVEVHNAKTKPREEQYNSTYRVVSVLTVLHQDWLNGKEYKCKVSNKALPAPIEKTISKAKGQPREPQVYTLPPSREEMTKNQVSLTCLVKGFYPSDIAVEWESNGQPENNYKTTPPVLDSDGSFFLYSKLTVDKSRWQQGNVFSCSVMHEALHNHYTQKSLSLSPGK light: DIVMTQSPATLSLSPGERATLSCRSSKSLQNVNGNTYLYWFQQKPGQSPQLLIYRMSNLNSGVPDRFSGSGSGTEFTLTISSLEPEDFAVYYCMQHLEYPITFGAGTKLEIKRTVAAPSVFIFPPSDEQLKSGTASVVCLLNNFYPREAKVQWKVDNALQSGNSQESVTEQDSKDSTYSLSSTLTLSKADYEKHKVYACEVTHQGLSSPVTKSFNRGEC	5.69 fold	11.4 fold
L234Y (antibody, human IgG1, kappa, HuAM4G7 IgG1 Fc variant) heavy: not shown light: DIVMTQSPATLSLSPGERATLSCRSSKSLQNVNGNTYLYWFQQKPGQSPQLLIYRMSNLNSGVPDRFSGSGSGTEFTLTISSLEPEDFAVYYCMQHLEYPITFGAGTKLEIKRTVAAPSVFIFPPSDEQLKSGTASVVCLLNNFYPREAKVQWKVDNALQSGNSQESVTEQDSKDSTYSLSSTLTLSKADYEKHKVYACEVTHQGLSSPVTKSFNRGEC	0.0511 fold	0.0237 fold
L234S (antibody, human IgG1, kappa, HuAM4G7 IgG1 Fc variant) heavy: not shown light: DIVMTQSPATLSLSPGERATLSCRSSKSLQNVNGNTYLYWFQQKPGQSPQLLIYRMSNLNSGVPDRFSGSGSGTEFTLTISSLEPEDFAVYYCMQHLEYPITFGAGTKLEIKRTVAAPSVFIFPPSDEQLKSGTASVVCLLNNFYPREAKVQWKVDNALQSGNSQESVTEQDSKDSTYSLSSTLTLSKADYEKHKVYACEVTHQGLSSPVTKSFNRGEC	0.693 fold	0.192 fold
L234W/S239E/S267E (antibody, human IgG1, kappa, HuAM4G7 IgG1 Fc variant) heavy: EVQLVESGGGLVKPGGSLKLSCAASGYTFTSYVMHWVRQAPGKGLEWIGYINPYNDGTKYNEKFQGRVTISSDKSISTAYMELSSLRSEDTAMYYCARGTYYYGTRVFDYWGQGTLVTVSSASTKGPSVFPLAPSSKSTSGGTAALGCLVKDYFPEPVTVSWNSGALTSGVHTFPAVLQSSGLYSLSSVVTVPSSSLGTQTYICNVNHKPSNTKVDKKVEPKSCDKTHTCPPCPAPEWLGGPEVFLFPPKPKDTLMISRTPEVTCVVVDVEHEDPEVKFNWYVDGVEVHNAKTKPREEQYNSTYRVVSVLTVLHQDWLNGKEYKCKVSNKALPAPIEKTISKAKGQPREPQVYTLPPSREEMTKNQVSLTCLVKGFYPSDIAVEWESNGQPENNYKTTPPVLDSDGSFFLYSKLTVDKSRWQQGNVFSCSVMHEALHNHYTQKSLSLSPGK light: DIVMTQSPATLSLSPGERATLSCRSSKSLQNVNGNTYLYWFQQKPGQSPQLLIYRMSNLNSGVPDRFSGSGSGTEFTLTISSLEPEDFAVYYCMQHLEYPITFGAGTKLEIKRTVAAPSVFIFPPSDEQLKSGTASVVCLLNNFYPREAKVQWKVDNALQSGNSQESVTEQDSKDSTYSLSSTLTLSKADYEKHKVYACEVTHQGLSSPVTKSFNRGEC	98.5 fold	42.3 fold
L234Q (antibody, human IgG1, kappa, HuAM4G7 IgG1 Fc variant) heavy: not shown light: DIVMTQSPATLSLSPGERATLSCRSSKSLQNVNGNTYLYWFQQKPGQSPQLLIYRMSNLNSGVPDRFSGSGSGTEFTLTISSLEPEDFAVYYCMQHLEYPITFGAGTKLEIKRTVAAPSVFIFPPSDEQLKSGTASVVCLLNNFYPREAKVQWKVDNALQSGNSQESVTEQDSKDSTYSLSSTLTLSKADYEKHKVYACEVTHQGLSSPVTKSFNRGEC	0.0372 fold	0.147 fold

The next lines start with the values.

Fold FcγRIIaR (FcγRIIaR)	Fold FcγRIIb [1]	Binder
1.02 fold	5.58 fold	L235R (antibody, human IgG1, kappa, HuAM4G7 IgG1 Fc variant) heavy: not shown light: DIVMTQSPATLSLSPGERATLSCRSSKSLQNVNGNTYLYWFQQKPGQSPQLLIYRMSNLNSGVPDRFSGSGSGTEFTLTISSLEPEDFAVYYCMQHLEYPITFGAGTKLEIKRTVAAPSVFIFPPSDEQLKSGTASVVCLLNNFYPREAKVQWKVDNALQSGNSQESVTEQDSKDSTYSLSSTLTLSKADYEKHKVYACEVTHQGLSSPVTKSFNRGEC
0.756 fold	0.734 fold	L235H (antibody, human IgG1, kappa, HuAM4G7 IgG1 Fc variant) heavy: not shown light: DIVMTQSPATLSLSPGERATLSCRSSKSLQNVNGNTYLYWFQQKPGQSPQLLIYRMSNLNSGVPDRFSGSGSGTEFTLTISSLEPEDFAVYYCMQHLEYPITFGAGTKLEIKRTVAAPSVFIFPPSDEQLKSGTASVVCLLNNFYPREAKVQWKVDNALQSGNSQESVTEQDSKDSTYSLSSTLTLSKADYEKHKVYACEVTHQGLSSPVTKSFNRGEC
0.0859 fold	0.147 fold	P329E (antibody, human IgG1, kappa, HuAM4G7 IgG1 Fc variant) heavy: not shown light: DIVMTQSPATLSLSPGERATLSCRSSKSLQNVNGNTYLYWFQQKPGQSPQLLIYRMSNLNSGVPDRFSGSGSGTEFTLTISSLEPEDFAVYYCMQHLEYPITFGAGTKLEIKRTVAAPSVFIFPPSDEQLKSGTASVVCLLNNFYPREAKVQWKVDNALQSGNSQESVTEQDSKDSTYSLSSTLTLSKADYEKHKVYACEVTHQGLSSPVTKSFNRGEC
3.06 fold	2.37 fold	L235T/S267E (antibody, human IgG1, kappa, HuAM4G7 IgG1 Fc variant) heavy: not shown light: DIVMTQSPATLSLSPGERATLSCRSSKSLQNVNGNTYLYWFQQKPGQSPQLLIYRMSNLNSGVPDRFSGSGSGTEFTLTISSLEPEDFAVYYCMQHLEYPITFGAGTKLEIKRTVAAPSVFIFPPSDEQLKSGTASVVCLLNNFYPREAKVQWKVDNALQSGNSQESVTEQDSKDSTYSLSSTLTLSKADYEKHKVYACEVTHQGLSSPVTKSFNRGEC
0.333 fold	0.55 fold	L235E (antibody, human IgG1, kappa, HuAM4G7 IgG1 Fc variant) heavy: not shown light: DIVMTQSPATLSLSPGERATLSCRSSKSLQNVNGNTYLYWFQQKPGQSPQLLIYRMSNLNSGVPDRFSGSGSGTEFTLTISSLEPEDFAVYYCMQHLEYPITFGAGTKLEIKRTVAAPSVFIFPPSDEQLKSGTASVVCLLNNFYPREAKVQWKVDNALQSGNSQESVTEQDSKDSTYSLSSTLTLSKADYEKHKVYACEVTHQGLSSPVTKSFNRGEC
